Consider 1 substance from publication PMC5059447.

Assay [1] addresses beak and feather disease virus capsid (Cap) protein, residues 14-247 (beak and feather disease virus (BFDV)). Briefly: crystal structure; 60-mer co-crystallised with ssDNA oligonucleotides labelled with AlexaFluor488 and AlexaFluor647; space group F432.
For assay [2] the target is unchanged. Briefly: crystal structure; 10-mer crystals: 1.1 M ammonium sulfate, Tris pH 8.5, 0.1 M iron chloride, 290 K; space group P212121; no ssDNA.
Assay [3] shares this target. Briefly: crystal structure; 60-mer crystals: 0.8 M Na/K hydrogen phosphate pH 7.4, 290 K; space group F432; no ssDNA.

As to “beak and feather disease virus capsid (Cap) protein, residues 14-247 (domain or fragment)”, the stoichiometry N in assay [1] amounted to 60; in assay [2], 10; in assay [3], 60.
